Measured values as given in US20060052582.

Experiments:
[1] = target: GST Nek7, unphosphorylated (bacterial recombinant)
[2] = target: myc 6His Nek6 (Nek6 with carboxy terminal myc/6His epitopes)
myc 6His Nek6 (Nek6 with carboxy terminal myc/6His epitopes), sequence (chain, as listed by the source): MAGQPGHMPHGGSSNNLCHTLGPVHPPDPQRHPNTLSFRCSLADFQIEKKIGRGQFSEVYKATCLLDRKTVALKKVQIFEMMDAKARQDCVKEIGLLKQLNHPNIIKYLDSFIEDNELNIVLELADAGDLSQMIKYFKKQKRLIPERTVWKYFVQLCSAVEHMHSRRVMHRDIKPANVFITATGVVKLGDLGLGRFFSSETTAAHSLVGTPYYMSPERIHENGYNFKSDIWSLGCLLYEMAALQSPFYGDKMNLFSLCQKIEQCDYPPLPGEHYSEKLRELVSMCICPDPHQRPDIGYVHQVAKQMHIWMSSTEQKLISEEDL

GST Nek7, unphosphorylated (bacterial recombinant), sequence (chain, as listed by the source): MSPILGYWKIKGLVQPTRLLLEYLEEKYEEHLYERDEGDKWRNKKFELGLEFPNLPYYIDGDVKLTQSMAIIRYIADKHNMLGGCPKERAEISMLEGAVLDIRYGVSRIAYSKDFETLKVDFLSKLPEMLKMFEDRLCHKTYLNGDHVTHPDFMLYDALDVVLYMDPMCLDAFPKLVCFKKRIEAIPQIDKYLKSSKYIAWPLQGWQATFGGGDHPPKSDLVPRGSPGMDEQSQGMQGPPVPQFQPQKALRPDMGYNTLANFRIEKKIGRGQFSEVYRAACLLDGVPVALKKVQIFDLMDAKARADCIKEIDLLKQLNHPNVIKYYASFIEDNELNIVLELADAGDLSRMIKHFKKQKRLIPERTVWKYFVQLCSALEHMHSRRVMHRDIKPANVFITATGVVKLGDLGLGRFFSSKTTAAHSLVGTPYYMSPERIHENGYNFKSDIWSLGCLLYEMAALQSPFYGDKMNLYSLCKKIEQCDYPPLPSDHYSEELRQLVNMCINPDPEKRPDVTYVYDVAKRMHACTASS
GST Nek6, sequence (chain, as listed by the source): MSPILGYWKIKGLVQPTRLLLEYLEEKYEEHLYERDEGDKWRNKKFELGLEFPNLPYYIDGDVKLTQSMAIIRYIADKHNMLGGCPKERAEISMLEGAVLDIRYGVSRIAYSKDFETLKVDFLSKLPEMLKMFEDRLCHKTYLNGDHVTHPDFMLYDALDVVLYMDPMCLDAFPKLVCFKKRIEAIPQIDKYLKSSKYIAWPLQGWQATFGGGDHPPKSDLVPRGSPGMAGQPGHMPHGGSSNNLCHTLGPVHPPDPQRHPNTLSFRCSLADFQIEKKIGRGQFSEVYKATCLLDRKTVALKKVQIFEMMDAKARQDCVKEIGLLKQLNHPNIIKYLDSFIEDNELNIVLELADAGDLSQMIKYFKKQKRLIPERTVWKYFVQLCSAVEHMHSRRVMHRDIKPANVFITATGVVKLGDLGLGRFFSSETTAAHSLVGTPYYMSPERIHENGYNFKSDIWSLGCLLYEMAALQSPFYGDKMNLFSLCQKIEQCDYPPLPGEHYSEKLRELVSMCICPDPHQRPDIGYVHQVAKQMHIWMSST
GST Nek6 (K74M/K75M), sequence (chain, as listed by the source K74M K75M): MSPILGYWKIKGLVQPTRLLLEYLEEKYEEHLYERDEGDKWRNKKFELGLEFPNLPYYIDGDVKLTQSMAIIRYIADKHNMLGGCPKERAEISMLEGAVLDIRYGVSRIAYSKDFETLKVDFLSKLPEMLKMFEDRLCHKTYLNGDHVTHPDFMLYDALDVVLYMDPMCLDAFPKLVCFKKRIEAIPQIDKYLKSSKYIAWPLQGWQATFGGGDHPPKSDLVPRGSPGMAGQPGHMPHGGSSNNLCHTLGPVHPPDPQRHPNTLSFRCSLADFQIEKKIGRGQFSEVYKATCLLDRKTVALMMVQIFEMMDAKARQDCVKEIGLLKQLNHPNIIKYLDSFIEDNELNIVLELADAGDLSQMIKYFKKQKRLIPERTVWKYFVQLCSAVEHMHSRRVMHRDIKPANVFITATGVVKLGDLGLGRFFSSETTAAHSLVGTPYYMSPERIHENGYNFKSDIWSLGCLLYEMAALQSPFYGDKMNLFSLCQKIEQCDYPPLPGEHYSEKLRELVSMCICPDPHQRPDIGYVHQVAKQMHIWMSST

| Protein | Nek6/7 kinase activity (32P into GST Cdc16 Ct) (GST Nek6) | phosphorylation of Nek6 (K74M/K75M) at Ser206 in vitro (GST Nek6 (K74M/K75M)) | Nek6/7 kinase activity (32P into GST Cdc16 Ct) [1] | specific activity of coexpressed Nek6 [2] |
| --- | --- | --- | --- | --- |
| FLAG Nercc (full-length wild type Nercc1 kinase with FLAG epitope tag) (protein) MDYKDDDDKMSVLGEYERHCDSINSDFGSESGGCGDSSPGPSASQGPRAGGGAAEQEELHYIPIRVLGRGAFGEATLYRRTEDDSLVVWKEVDLTRLSEKERRDALNEIVILALLQHDNIIAYYNHFMDNTTLLIELEYCNGGNLYDKILRQKDKLFEEEMVVWYLFQIVSAVSCIHKAGILHRDIKTLNIFLTKANLIKLGDYGLAKKLNSEYSMAETLVGTPYYMSPELCQGVKYNFKSDIWAVGCVIFELLTLKRTFDATNPLNLCVKIVQGIRAMEVDSSQYSLELIQMVHSCLDQDPEQRPTADELLDRPLLRKRRREMEEKVTLLNAPTKRPRSSTVTEAPIAVVTSRTSEVYIWGGGKSTPQKLDVIKSGCSARQVCAGNTHFAVVTVEKELYTWVNMQGGTKLHGQLGHGDKASYRQPKHVEKLQGKAIHQVSCGDDFTVCVTDEGQLYAFGSDYYGCMGVDKVAGPEVLEPMQLNFFLSNPVEQVSCGDNHVVVLTRNKEVYSWGCGEYGRLGLDSEEDYYTPQKVDVPKALIIVAVQCGCDGTFLLTQSGKVLACGLNEFNKLGLNQCMSGIINHEAYHEVPYTTSFTLAKQLSFYKIRTIAPGKTHTAAIDERGRLLTFGCNKCGQLGVGNYKKRLGINLLGGPLGGKQVIRVSCGDEFTIAATDDNHIFAWGNGGNGRLAMTPTERPHGSDICTSWPRPIFGSLHHVPDLSCRGWHTILIVEKVLNSKTIRSNSSGLSIGTVFQSSSPGGGGGGGGGEEEDSQQESETPDPSGGFRGTMEADRGMEGLISPTEAMGNSNGASSSCPGWLRKELENAEFIPMPDSPSPLSAAFSESEKDTLPYEELQGLKVASEAPLEHKPQVEASSPRLNPAVTCAGKGTPLTPPACACSSLQVEVERLQGLVLKCLAEQQKLQQENLQIFTQLQKLNKKLEGGQQVGMHSKGTQTAKEEMEMDPKPDLDSDSGCLLGTDSCRPSL | 20-25 fold activation of Nek6/7 kinase activity | This modification occurred, however, with a rather low efficiency | 20-25 fold activation of Nek6/7 kinase activity |  |
| FLAG Nercc (Δ347-732) (protein) MDYKDDDDKMSVLGEYERHCDSINSDFGSESGGCGDSSPGPSASQGPRAGGGAAEQEELHYIPIRVLGRGAFGEATLYRRTEDDSLVVWKEVDLTRLSEKERRDALNEIVILALLQHDNIIAYYNHFMDNTTLLIELEYCNGGNLYDKILRQKDKLFEEEMVVWYLFQIVSAVSCIHKAGILHRDIKTLNIFLTKANLIKLGDYGLAKKLNSEYSMAETLVGTPYYMSPELCQGVKYNFKSDIWAVGCVIFELLTLKRTFDATNPLNLCVKIVQGIRAMEVDSSQYSLELIQMVHSCLDQDPEQRPTADELLDRPLLRKRRREMEEKVTLLNAPTKRPRSSTVTEAPIAVVTSRTIRSNSSGLSIGTVFQSSSPGGGGGGGGGEEEDSQQESETPDPSGGFRGTMEADRGMEGLISPTEAMGNSNGASSSCPGWLRKELENAEFIPMPDSPSPLSAAFSESEKDTLPYEELQGLKVASEAPLEHKPQVEASSPRLNPAVTCAGKGTPLTPPACACSSLQVEVERLQGLVLKCLAEQQKLQQENLQIFTQLQKLNKKLEGGQQVGMHSKGTQTAKEEMEMDPKPDLDSDSGCLLGTDSCRPSL |  |  |  | a two-fold increase in the specific activity of coexpressed Nek6 |
